Data: PMC5147862

Target: KRAS, mGppNHp-bound (human) (UniProt P01116)
Assay: fluorescence polarisation; MBP-tagged effector domain (0.05-100 μM) titrated to 1 μM RAS-mGppNHp; 50 mM Tris/HCl pH 7.5, 100 mM NaCl, 5 mM MgCl2, 3 mM dithiothreitol, 25°C; quadratic ligand binding equation

Kd: 421 nM
B1: RAS association (RA) domain of RASSF5, MBP fusion (domain or fragment)
chain: EETQRPPTLQEIKQKIDSYNTREKNCLGMKLSEDGTYTGFIKVHLKLRRPVTVPAGIRPQSIYDAIKEVNLAATTDKRTSFYLPLDAIKQLHISSTTTVSEVIQGLLKKFMVVDNPQKFALFKRIHKDGQVLFQKLSIADRPLYLRLLAGPDTEVLSFV
